# Experimental data from publication PMC11365436.
# Legend:
# [1] = target: strep-CsoS1A (hexameric shell protein) (Halothiobacillus neapolitanus) (UniProt P45689)
# [2] = target: strep-CsoS1A (hexameric shell protein) (Halothiobacillus neapolitanus) (UniProt P45689); test: native gel or EMSA; native 1% agarose protein gel (Tris-acetate-EDTA); proteins mixed in 50 mM Hepes, 150 mM NaCl, 30 min at room temperature; 2.5 μg CsoS1A or BSA, 8.4 μg CsoS2 or 3.5 μg MR variant (0.09 nmol); run 70 min at 60 V in 25 mM Tris, 200 mM glycine, pH 7.5; stained, quantified in FIJI
# UniProt P45689, sequence (P45689 whole entry): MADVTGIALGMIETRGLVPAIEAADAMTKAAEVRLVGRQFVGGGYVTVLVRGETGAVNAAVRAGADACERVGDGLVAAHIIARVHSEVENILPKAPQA
substance,measurement,setting,value
"6xHis-CsoS2B (full-length CsoS2, long form) (from UniProt O85041-1 1-869) (natural protein)","turbidity with 9 μM CsoS1A, compared to wtMR (fold against wtMR)",[1],5
same,percent of shell bound and shifted from its control position,[2],> 90%
"6xHis-wtMR-strep (WT middle region of CsoS2, repeats 1 to 6) (domain or fragment)",percent less mobility shift of shell than with full-length CsoS2,[2],25%
